Results reported in the supplement of paper PMC9112550, “Optimization of the antimicrobial peptide Bac7 by deep mutational scanning” (BMC Biology, 2022).
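Also: peptides expressed intracellularly from a pBAD plasmid library in pooled LB shake-flask culture, induced with 0.3% L-arabinose, DNA abundance read by NGS, three biological replicates, DESeq2 with apeglm shrinkage.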

The sequences below were run on Escherichia coli TOP10 (assay: shrunken log2 fold change of peptide-encoding DNA abundance (4.5 h post-induction vs induction); higher = less antimicrobial activity (less host growth inhibition)). Settings: time post-induction: 4.5 h; library: site-saturation at positions 5, 18, 19, 20.
RRIRDRPPRLPRPRPRPLSEPRP was tested, and the “shrunken log2 fold change” value was 0.111. For RRIRARPPRLPRPRPRPDMHPRP, the “shrunken log2 fold change” value was -0.00915. In the case of RRIRRRPPRLPRPRPRPNYAPRP, the “shrunken log2 fold change” value is reported as 0.0933. RRIRIRPPRLPRPRPRPFIKPRP was tested, and the “shrunken log2 fold change” value was -0.913. For RRIRSRPPRLPRPRPRPWSRPRP, the “shrunken log2 fold change” value was -0.199. For RRIRFRPPRLPRPRPRPANLPRP, the “shrunken log2 fold change” value was -0.296. In the case of RRIRKRPPRLPRPRPRPEDCPRP, the “shrunken log2 fold change” value is reported as -0.00264. With RRIRFRPPRLPRPRPRPMEQPRP the “shrunken log2 fold change” value was -0.00146. With RRIRARPPRLPRPRPRPPGQPRP the “shrunken log2 fold change” value was 0.0736. RRIRARPPRLPRPRPRPYLDPRP was tested, and the “shrunken log2 fold change” value was 0.118. With RRIRCRPPRLPRPRPRPSVSPRP the “shrunken log2 fold change” value was -0.185. RRIRWRPPRLPRPRPRPMFIPRP was tested, and the “shrunken log2 fold change” value was -0.378. In the case of RRIRYRPPRLPRPRPRPTNLPRP, the “shrunken log2 fold change” value is reported as -0.661. In the case of RRIRMRPPRLPRPRPRPPPCPRP, the “shrunken log2 fold change” value is reported as 1.73. RRIRVRPPRLPRPRPRPKSYPRP was tested, and the “shrunken log2 fold change” value was -0.425. In the case of RRIRFRPPRLPRPRPRPCNYPRP, the “shrunken log2 fold change” value is reported as -0.72. With RRIRPRPPRLPRPRPRPPRFPRP the “shrunken log2 fold change” value was 0.557. RRIRDRPPRLPRPRPRPGNGPRP was tested, and the “shrunken log2 fold change” value was 0.12. With RRIRGRPPRLPRPRPRPKNSPRP the “shrunken log2 fold change” value was 0.252. With RRIRARPPRLPRPRPRPHNSPRP the “shrunken log2 fold change” value was 1.18. For RRIRHRPPRLPRPRPRPPEQPRP, the “shrunken log2 fold change” value was -0.000687. RRIRRRPPRLPRPRPRPPWCPRP was tested, and the “shrunken log2 fold change” value was 0.294. In the case of RRIRYRPPRLPRPRPRPTLCPRP, the “shrunken log2 fold change” value is reported as -0.239. For RRIRARPPRLPRPRPRPYPFPRP, the “shrunken log2 fold change” value was -0.63. RRIRNRPPRLPRPRPRPMYAPRP was tested, and the “shrunken log2 fold change” value was -0.192. With RRIRIRPPRLPRPRPRPWGHPRP the “shrunken log2 fold change” value was -0.0191. For RRIRERPPRLPRPRPRPITYPRP, the “shrunken log2 fold change” value was -0.546. In the case of RRIRLRPPRLPRPRPRPWRVPRP, the “shrunken log2 fold change” value is reported as 0.488. RRIRDRPPRLPRPRPRPGKYPRP was tested, and the “shrunken log2 fold change” value was -0.124. In the case of RRIRQRPPRLPRPRPRPKHTPRP, the “shrunken log2 fold change” value is reported as -0.224. In the case of RRIRERPPRLPRPRPRPKVEPRP, the “shrunken log2 fold change” value is reported as -0.0672. For RRIRTRPPRLPRPRPRPDNFPRP, the “shrunken log2 fold change” value was -0.231. RRIRRRPPRLPRPRPRPKVKPRP was tested, and the “shrunken log2 fold change” value was -0.0947. RRIRKRPPRLPRPRPRPLFAPRP was tested, and the “shrunken log2 fold change” value was 0.594. With RRIRSRPPRLPRPRPRPPDPPRP the “shrunken log2 fold change” value was 0.472. With RRIRRRPPRLPRPRPRPALQPRP the “shrunken log2 fold change” value was 1.92. With RRIRNRPPRLPRPRPRPWVYPRP the “shrunken log2 fold change” value was -0.0702. In the case of RRIRERPPRLPRPRPRPDVTPRP, the “shrunken log2 fold change” value is reported as 0.00636. With RRIRIRPPRLPRPRPRPEMQPRP the “shrunken log2 fold change” value was 0.128. RRIRVRPPRLPRPRPRPCDIPRP was tested, and the “shrunken log2 fold change” value was -0.149. RRIRWRPPRLPRPRPRPYDRPRP was tested, and the “shrunken log2 fold change” value was 0.0155. RRIRERPPRLPRPRPRPTISPRP was tested, and the “shrunken log2 fold change” value was -0.163. In the case of RRIRERPPRLPRPRPRPPIGPRP, the “shrunken log2 fold change” value is reported as -0.144. For RRIRCRPPRLPRPRPRPNWNPRP, the “shrunken log2 fold change” value was -0.514. For RRIRYRPPRLPRPRPRPCTFPRP, the “shrunken log2 fold change” value was -0.208. In the case of RRIRWRPPRLPRPRPRPPSVPRP, the “shrunken log2 fold change” value is reported as 0.171. With RRIRCRPPRLPRPRPRPLALPRP the “shrunken log2 fold change” value was -0.621. RRIRIRPPRLPRPRPRPVIDPRP was tested, and the “shrunken log2 fold change” value was -0.0443. For RRIRARPPRLPRPRPRPEGKPRP, the “shrunken log2 fold change” value was 0.702. RRIRERPPRLPRPRPRPCHMPRP was tested, and the “shrunken log2 fold change” value was 0.0597. For RRIRHRPPRLPRPRPRPGGHPRP, the “shrunken log2 fold change” value was 0.125. In the case of RRIRARPPRLPRPRPRPKSYPRP, the “shrunken log2 fold change” value is reported as -0.145. For RRIRDRPPRLPRPRPRPRSGPRP, the “shrunken log2 fold change” value was 0.276. For RRIRGRPPRLPRPRPRPFKWPRP, the “shrunken log2 fold change” value was -0.0584. With RRIRNRPPRLPRPRPRPLTVPRP the “shrunken log2 fold change” value was 0.0619. For RRIRLRPPRLPRPRPRPGCAPRP, the “shrunken log2 fold change” value was 0.444. With RRIRFRPPRLPRPRPRPNKCPRP the “shrunken log2 fold change” value was -0.273. With RRIRVRPPRLPRPRPRPFTWPRP the “shrunken log2 fold change” value was -0.327. RRIRGRPPRLPRPRPRPTKHPRP was tested, and the “shrunken log2 fold change” value was 0.385. RRIRYRPPRLPRPRPRPMNYPRP was tested, and the “shrunken log2 fold change” value was -0.49. For RRIRVRPPRLPRPRPRPNWFPRP, the “shrunken log2 fold change” value was 0.0817. In the case of RRIRYRPPRLPRPRPRPERGPRP, the “shrunken log2 fold change” value is reported as -0.0437. In the case of RRIRDRPPRLPRPRPRPRRDPRP, the “shrunken log2 fold change” value is reported as 0.492. With RRIRLRPPRLPRPRPRPGCTPRP the “shrunken log2 fold change” value was -0.151. For RRIRIRPPRLPRPRPRPPLLPRP, the “shrunken log2 fold change” value was 0.444. In the case of RRIRPRPPRLPRPRPRPANWPRP, the “shrunken log2 fold change” value is reported as 0.22. RRIRGRPPRLPRPRPRPFHKPRP was tested, and the “shrunken log2 fold change” value was -0.411. In the case of RRIRDRPPRLPRPRPRPDDCPRP, the “shrunken log2 fold change” value is reported as -0.00963. RRIRVRPPRLPRPRPRPRFWPRP was tested, and the “shrunken log2 fold change” value was 0.64. With RRIRNRPPRLPRPRPRPSTHPRP the “shrunken log2 fold change” value was -0.274. RRIRWRPPRLPRPRPRPFTKPRP was tested, and the “shrunken log2 fold change” value was -0.151. With RRIRYRPPRLPRPRPRPMRDPRP the “shrunken log2 fold change” value was -0.151. In the case of RRIRYRPPRLPRPRPRPPRVPRP, the “shrunken log2 fold change” value is reported as -0.0115. For RRIRYRPPRLPRPRPRPMSGPRP, the “shrunken log2 fold change” value was -0.748. RRIRYRPPRLPRPRPRPCCKPRP was tested, and the “shrunken log2 fold change” value was 0.0599.
